These results are taken from patent US20060084157A1.

For data set [1], the target named is Purified Fe-hydrogenase HydA of Scenedesmus obliquus (native enzyme) (Scenedesmus obliquus). The data set can be described thus: cell-based or functional assay.
In data set [2] the target is ferredoxin (source not stated, Table I).

Purified Fe-hydrogenase HydA of Scenedesmus obliquus (native enzyme) (Scenedesmus obliquus), sequence (chain, as listed by the source): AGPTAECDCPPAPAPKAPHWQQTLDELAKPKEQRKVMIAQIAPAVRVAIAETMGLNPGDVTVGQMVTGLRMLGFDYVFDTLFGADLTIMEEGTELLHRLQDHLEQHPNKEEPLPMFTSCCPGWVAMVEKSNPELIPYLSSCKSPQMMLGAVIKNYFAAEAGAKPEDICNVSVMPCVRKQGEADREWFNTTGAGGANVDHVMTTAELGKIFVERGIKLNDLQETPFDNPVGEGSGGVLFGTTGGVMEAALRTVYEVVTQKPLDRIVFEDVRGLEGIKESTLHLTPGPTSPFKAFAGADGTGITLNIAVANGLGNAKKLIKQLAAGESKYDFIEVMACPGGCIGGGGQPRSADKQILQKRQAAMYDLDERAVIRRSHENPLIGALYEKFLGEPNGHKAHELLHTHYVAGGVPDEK

“Spinach ferredoxin (PetF) (from UniProt P00221 51-147)” came in with an H2-evolving activity (in vitro, dithionite as reducing reagent) in data set [1] of 350 U/mg protein.

In data set [1], “Ferredoxin (PetF) of Chlamydomonas reinhardtii (from UniProt P07839 33-126)” yielded an H2-evolving activity (in vitro, dithionite as reducing reagent) of 390 U/mg protein.

Turning to “Ferredoxin (PetF) of Scenedesmus obliquus”, in data set [1], the H2-evolving activity (in vitro, dithionite as reducing reagent) is 420 U/mg protein.

B1: Fe-hydrogenase HydA of Chlamydomonas reinhardtii (native mature enzyme) (protein)
chain: AAPAAEAPLSHVQQALAELAKPKDDPTRKHVCVQVAPAVRVAIAETLGLAPGATTPKQLAEGLRRLGFDEVFDTLFGADLTIMEEGSELLHRLTEHLEAHPHSDEPLPMFTSCCPGWIAMLEKSYPDLIPYVSSCKSPQMMLAAMVKSYLAEKKGIAPKDMVMVSIMPCTRKQSEADRDWFCVDADPTLRQLDHVITTVELGNIFKERGINLAELPEGEWDNPMGVGSGAGVLFGTTGGVMEAALRTAYELFTGTPLPRLSLSEVRGMDGIKETNITMVPAPGSKFEELLKHRAAARAEAAAHGTPGPLAWDGGAGFTSEDGRGGITLRVAVANGLGNAKKLITKMQAGEAKYDFVEIMACPAGCVGGGGQPRSTDKAITQKRQAALYNLDEKSTLRRSHENPSIRELYDTYLGEPLGHKAHELLHTHYVAGGVEEKDEKK
On to B1, for which the “KM value (ferredoxin)” value in data set [2] amounted to 35 µM.
